Key:
[1] = SPR membrane binding to POPC/POPS/PI(3)P vesicles; settings: POPC/POPS/PI(3)P (77:20:3)
Source text: (§1) It has been generally thought that Smad2 and Smad3 are targeted to the activated TGF-β signaling complex by direct interaction with TβRI ([1], [2]) or via SARA ([7]). However, it has been shown that many cytosolic proteins that are targeted to membrane proteins or membrane-anchored signaling complexes have affinity for membrane lipids ([14]), phosphoinositides (PtdInsPs) in particular, and that their membrane recruitment is mediated by coincident lipid–protein and protein–protein interactions ([15], [16]). […] We thus measured the binding of bacterially expressed Smad2 to large unilamellar vesicles (LUVs) containing various lipids by surface plasmon resonance (SPR) analysis ([19], [20]). Lipid selectivity determined by SPR analysis is typically reported as the relative resonance unit (RU) values for different lipids at a given protein concentration ([21], [22]). […] We thus estimated RUmax for different lipid species by employing the highest protein concentration experimentally feasible (e.g., 1 μM) and determined RU/RUmax for different lipids at the protein concentration that allows robust comparison (e.g., 100 nM). Once the lipid selectivity has been determined by this semiquantitative approach, we then rigorously determined and compared Kd values for selected lipids for more accurate quantitative determination of lipid selectivity. […]

SPR PtdInsP selectivity = format: binding; settings: RU/RUmax, 100 nM protein
Source text: as §1

B1: Smad2 WT: bacterially expressed full-length Smad2 wild-type (protein)
chain: MSSILPFTPPVVKRLLGWKKSAGGSGGAGGGEQNGQEEKWCEKAVKSLVKKLKKTGRLDELEKAITTQNCNTKCVTIPSTCSEIWGLSTANTVDQWDTTGLYSFSEQTRSLDGRLQVSHRKGLPHVIYCRLWRWPDLHSHHELKAIENCEYAFNLKKDEVCVNPYHYQRVETPVLPPVLVPRHTEILTELPPLDDYTHSIPENTNFPAGIEPQSNYIPETPPPGYISEDGETSDQQLNQSMDTGSPAELSPTTLSPVNHSLDLQPVTYSEPAFWCSIAYYELNQRVGETFHASQPSLTVDGFTDPSNSERFCLGLLSNVNRNATVEMTRRHIGRGVRLYYIGGEVFAECLSDSAIFVQSPNCNQRYGWHPATVCKIPPGCNLKIFNNQEFAALLAQSVNQGFEAVYQLTRMCTIRMSFVKGWGAEYRRQTVTSTPCWIELHLNGPLQWLDKVLTQMGSPSVRCSSMS
modifications: left off: His6, N-terminal, state not stated
notes: bacterially expressed full-length Smad2 wild-type
- RUmax ([1]; 1 μM Smad2): 400 ± 20
- Kd ([1]; SPR, L1 chip, 23 °C, 20 mM Tris, pH 7.4, 0.16 M NaCl, average ±S.D., n = 3, read-out: Kd for lipid binding, PC/PS/PI(3)P): 210 ± 34 nM
- PtdInsP selectivity (SPR PtdInsP selectivity): significant degree of selectivity for POPC/POPS/PI(4,5)P2 (77:20:3) over other PtdInsP-containing vesicles

Source: paper PMC8567202, “Phosphoinositide-binding activity of Smad2 is essential for its function in TGF-β signaling” (The Journal of Biological Chemistry, 2021)
